In the Immune Epitope Database (IEDB):
pIC50: −log10 of the molar value.

Key:
Assay in all cases: IEDB peptide-MHC binding, cellular MHC/competitive/fluorescence; ≥ and ≤ were set here for values at or beyond the usual limits of such assays
HLA-A*02:05 = details: source organism: Human papillomavirus 16
HLA-A*02:02 = details: source organism: Human papillomavirus 16
HLA-A*02:03 = details: source organism: Human papillomavirus 16
HLA-A*02:06 = details: source organism: Human papillomavirus 16
HLA-A*02:04 = biological target: HLA-A*02:04
[1] = source organism: Human papillomavirus 16

| Sequence | pIC50 (HLA-A*02:05) | pIC50 (HLA-A*02:02) | pIC50 (HLA-A*02:03) | pIC50 (HLA-A*02:06) | pIC50 (HLA-A*02:04; [1]) | pIC50 (HLA-A*02:04; source organism: Hepatitis B virus) |
| --- | --- | --- | --- | --- | --- | --- |
| YMLDLQPETT | ≤ 4.00 | 5.22 | 5.30 | ≤ 4.15 | 4.96 |  |
| FLPSDFFPSV |  |  |  |  |  | 6.00 |
| TLGIVCPI | ≤ 4.70 | 5.40 | 5.70 | 4.55 | 5.40 |  |
